Laboratory results reported in patent US11752211B2, “Fatty acids and their use in conjugation to biomolecules” (NOVARTIS AG, priority 2014, dated 2023).
Positions of bridges follow the written chain, without caps; N, C: chain ends. No end group written: not given here.

Key:
[1] = In vivo plasma stability of AgRP conjugates, 10 nanomoles per rat iv, AgRP ELISA; conditions: male Sprague-Dawley rats, 10 nanomoles per rat intravenously
Experimental: 10 nanomoles of conjugate was dissolved in 300 μL of PBS (Phosphate buffered saline) to form Dosing solution. Dosing solution ([…]) was administered intravenously to male Sprague-Dawley rats via lateral tail vein (corresponding to a dose 10 nanomoles per rat). Blood was collected via tail snip at prescribed times after dosing and immediately placed on wet ice. These samples were centrifuged at 4C, with supernatant plasma transferred to a fresh tube for analysis.
Standard curve preparation: The two fatty acid conjugates of examples 27A and 27B and one mature human AgRP peptide were used to make standards. Intermediate stock solutions of each AgRP were prepared by diluting the stock labeled peptides in ELISA sample diluent with casein to 100 ug/ml. For assay, intermediates were diluted to a top standard concentration of 2500 pg/mL and then diluted 2-fold serially to 16 points including a zero dose standard in ELISA sample diluent with bovine serum albumin (BSA). Sample dilution: Plasma samples were diluted 10-fold and then 5-fold serially out to 31,250-fold in ELISA sample diluent with BSA. […] Plates were washed a final time and a chemiluminescent substrate was added to all wells and plates were read immediately on a Spectramx M5 for light output. Data analysis: Raw data was organized and analyzed for basic PK parameters. […]

MC3R = biological target: T1, MC3R (Homo sapiens, UniProt P41968); test: MC3 cAMP assay in HEK293/MC3R cells (antagonist protocol); assay type: cell-based; conditions: HEK293/MC3R stable cell line, against NDP-α-MSH EC80
T1 construct: expressed in transfected cells; host or cells: HEK293
Experimental: Cells: HEK293/MC3R stable cell line
• I. Aspirate conditioned medium • II. Wash with 2.5 mL of DPBS (Gibco, Cat. No. 14190) • III. Add 2 mL of 0.25% Trypsin-EDTA (Gibco, Cat. No. 25200-056) • IV. Leave the flask for few minutes in incubator, tap the flask a few time to detach cells. • V. Add 10 mL of the complete medium to stop Trypsin-EDTA treatment and mix it well by pipetting softly a few times to re-suspend clumping cells • VI. Transfer 1.5 ml of cells into a new 150 cm flask containing 20 ml of complete media • VII. Transfer the remaining suspension into a 50 mL centrifuge tube • VIII. Spin down at 1200 rpm for 4 mins. Aspirate supernatant • IX. Add 6 mL of the assay buffer to the tube and re-suspend the cells by softly pipetting • X. Transfer 0.5 mL of the suspension into a sample vial for Vi-cell and add another 0.5 ml of PBS. • XI. Count cell number by using a Vi-cell *Record cell density and viability every time • i. Plate cells at 4K/well in 10 ul/well of assay buffer containing IBMX. • ii. Leave the plate in incubator for ˜30 mins before assay is started on suspension cells.
Two step cAMP protocol is followed for cAMP determination.
• I. To 10 ul/well of cells add 5 ul of AgRP prepared at 3× in assay buffer only to antagonist wells. • II. Add 5 ul of buffer to positive control wells (wells that will have NDP-α-MSH). • III. Incubate the plate at 37° C. for ˜20 mins. • IV. […]

RXFP1 [2] = biological target: T2, RXFP1 (Homo sapiens, UniProt Q9HBX9); test: Serelaxin in vitro activity assay #1: cAMP HTRF in RXFP1-HEK293 cells; assay type: cell-based; conditions: DMEM:F12 media
T2 construct: expressed in transfected cells; host or cells: HEK293
T2 sequence (Q9HBX9 1-757): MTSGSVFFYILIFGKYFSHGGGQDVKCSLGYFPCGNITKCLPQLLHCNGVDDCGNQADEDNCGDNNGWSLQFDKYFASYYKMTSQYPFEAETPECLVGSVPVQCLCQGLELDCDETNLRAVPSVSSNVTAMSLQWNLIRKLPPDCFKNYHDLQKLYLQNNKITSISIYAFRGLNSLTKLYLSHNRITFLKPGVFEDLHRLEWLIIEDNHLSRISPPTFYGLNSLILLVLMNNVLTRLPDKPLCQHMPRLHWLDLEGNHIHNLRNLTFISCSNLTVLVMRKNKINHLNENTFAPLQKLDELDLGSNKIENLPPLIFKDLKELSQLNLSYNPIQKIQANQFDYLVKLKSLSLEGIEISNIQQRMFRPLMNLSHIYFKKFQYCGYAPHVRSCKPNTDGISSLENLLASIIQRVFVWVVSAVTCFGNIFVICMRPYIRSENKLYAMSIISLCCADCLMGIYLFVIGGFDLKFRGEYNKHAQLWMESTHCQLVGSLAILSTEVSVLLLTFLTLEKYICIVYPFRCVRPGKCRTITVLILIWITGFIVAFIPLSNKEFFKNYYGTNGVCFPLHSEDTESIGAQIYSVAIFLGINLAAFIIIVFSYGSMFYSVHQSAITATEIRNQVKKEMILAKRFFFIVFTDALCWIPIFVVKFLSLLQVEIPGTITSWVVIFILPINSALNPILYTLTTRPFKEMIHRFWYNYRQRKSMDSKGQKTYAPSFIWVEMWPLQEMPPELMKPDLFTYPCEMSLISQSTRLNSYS
Experimental: Protocol: Day 1: Seeded RXFP1-HEK293/parental HEK293 cells 8k in 10 μl of DMEM: F12 media in solid bottom PDL coated white plates Day 2: Ran assay with the compound Agonist Mode (Overview): • Cells in 10 μl of DMEM:F12 media @37° C. O/N • 5 μl of 2000 μM (4×) of IBMX to the cells for 30 min at 37° C. • 5 μl of 4× compound/Serelaxin to the above for 30 min at 37° C. […]
Read FRET signal—Envision 665 nm/620 nm […]

RXFP1 [3] = biological target: T2, RXFP1; test: Serelaxin in vitro activity in presence of bovine serum albumin and human serum #2: cAMP in RXFP1-HEK293 cells; assay type: cell-based
Experimental: In Vitro Activity in Presence of Bovine Serum Albumin and Human Serum #2: Materials: DMEM: F12 media (Gibco, cat #11320) IBMX (Sigma, cat #15879) 384 solid bottom white plates (Greiner bio-one, cat #781945) 20,000 dynamic-2 cAMP kit (Cisbio, cat #62AM4PEC) Adenosine 3′, 5′-cyclic monophosphate (Sigma, cat #A9501) Matrix-plate mate plus (used for adding 5 μl of assays reagents) PBS-Gibco (cat #10010-023) 1M HEPES Gibco (cat-15630-080) 1×HBSS Gibco (cat-14175-095) Assay buffer—1×HBSS+10 mM HEPES Bovine serum albumin cat #A2153 (Sigma-Aldrich) Sigma Aldrich—H4522 (Human serum) Conditions:
10% Human Serum (Sigma aldrich—H4522)
• Serelaxin 10 ul stock dissolved in 190 ul of PBS, final concentration is 40 μM, which are diluted 3× fold by transferring 30 ul to 60 ul of the assay buffer 11 point curve, (A2-A12) 12th is zero. Serelaxin-FA conjugate: Stock is (287.79 uM) i.e 2.61 mg/ml MW is 9069 Daltons • Serelaxin 27.798 ul stock dissolved in 172.2 ul of PBS, final concentration is 40 μM, which are diluted 3× fold by transferring 30 ul to 60 ul of the assay buffer 11 point curve, (A2-A12) 12th is zero. BSA Stock Solution Preparation: For 666.66 uM BSA: Made assay buffer 30 mls by dissolving 1.32 gms of BSA For 600 uM BSA: Made assay buffer 30 ms by dissolving 1.18 gms of BSA No BSA, has only assay buffer Human Serum For 4.44% HS: 1.34 mls in 28.66 mls of assay buffer For 4% HS: 1.2 mls in 28.8 mls of assay buffer For 11.11% HS: 3.33 mls in 26.67 mls of assay buffer For 10% HS: 3 mls in 27 mls of assay buffer Procedure: Day 1: Seed 8,000 cells/well of RXFP1-HEK293 and HEK293 (parental) cells in 10 μl/well volume in basal DMEM:F12 media-on solid bottom plate. Incubate cells overnight at 37° C./5% CO2. Day 2: • 1. Wash cells 2× times with 50 ul of assay buffer and were tapped gently on paper towel to get rid of assay buffer after first and second wash • 2. Cells were pretreated with 15 ul of media with IBMX (666.66 uM) containing respective media (600 uM of BSA, 4% BSA, 10% Human serum and assay buffer alone) for 30 minutes at 37° C. • 3. Serially dilute cpds 3× times, 11 point curve—transferring 15 ul of cpds from previous well to subsequent well with 30 ul of PBS, well 11 is PBS only • 4. Dilute (1:10) in assay buffer from step 3 (i.e is 10 ul to 90 ul of assay buffer) • 5. Dilute again from step 4 (1:10) in respective media (666.66 μM of BSA &4.44% & 11.11% Human serum and assay buffer) final con of the BSA is 600 μM and Human serum is 4 & 10% • 6. (*Incubate the cpds for 1 hr at RT in their respective media, before adding to cells) • 7. […] Read FRET on Envision • 12. cAMP std curves were made in their respective media. cAMP Standard Curve Dilutions:
The initial stock of cAMP standard is 1120000 nM • 1. […] Read on HTRF—Envision Analysis: […]

[4] = Pharmacokinetics (PK) assay of hPIP, single IV administration; assay type: in vivo; conditions: DIO mice
Experimental: Plasma exposure of hPIP were measured in DIO mice following a single IV administration. Briefly, freely-fed DIO mice (n=2) were administered with hPIP (native and FA-conjugated PIP; solution in PBS; administered at 4 ml/kg body weight) once intravenuously (IV). Blood samples were collected and plasma isolated at 0.25, 0.5, 1, 3, 7, 24 and 48 hrs post-dose by and in-house ELISA assay (protocol shown below).

[5] = system: high fat diet-induced obese (DIO) mice; test: Glucose-stimulated insulin secretion (GSIS) assay; assay type: in vivo; conditions: single IV dose 45 min before oral glucose 3 g/kg
Experimental: GSIS test was performed as a measurement of in vivo pancreatic beta cell function following recombinant human Prolactin-inducible Protein (hPIP) in high fat diet-induced obese (DIO) mice. Briefly, mice (m=5-7/group) were fasted overnight (5:00 PM-8:00 AM) and on the test day body weight and blood glucose (BG; determined with Embrace glucose meters) which was designated as baseline timepoint. Next, mice were administered with hPIP (native and FA-conjugated PIP; solution in PBS; administered at 4 ml/kg body weight) or a vehicle-control (PBS) once intravenuously (IV). Forty-five min following the hPIP administration, all mice were dosed with oral glucose (3 g/kg dextrose; solution in PBS; administered at 4 ml/kg body weight). Blood glucose was measured immediately before the glucose load (designated as 0 min time point) and at 15 and 30 min post-glucose. Blood samples were collected for plasma isolation and measurement of plasma insulin were carried out at 0, 15 and 30 min post-glucose.

T1 sequence (P41968 whole entry, species assumed): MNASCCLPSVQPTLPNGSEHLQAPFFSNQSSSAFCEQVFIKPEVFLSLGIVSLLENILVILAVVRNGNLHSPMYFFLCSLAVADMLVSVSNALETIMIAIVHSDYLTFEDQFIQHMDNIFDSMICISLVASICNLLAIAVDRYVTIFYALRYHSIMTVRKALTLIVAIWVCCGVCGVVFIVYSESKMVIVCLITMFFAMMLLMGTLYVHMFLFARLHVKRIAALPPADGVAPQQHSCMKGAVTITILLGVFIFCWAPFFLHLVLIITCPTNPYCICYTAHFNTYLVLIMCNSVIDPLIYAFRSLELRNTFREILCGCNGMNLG

AgRP: mature human AgRP peptide (SSRRCVRLHESCLGQQVPCCDPCATCYCRFFNAFCYCRKLGTAMNPCSRT; disulfide 12-26, 19-37, 5-20, 23-47, 28-35)
In vivo Plasma stability t½ [1]: 4.4 h | EC50 (MC3R): 12000 pM

Serelaxin: Recombinant 1-chain human relaxin (DSWMEEVIKLCGRELVRAQIAICGMSTWSCFRALSRKTCGVHCCKNALASYLE; Serelaxin Sequence)
EC50 (RXFP1 [2]): 1120 pM | EC50 (RXFP1 [3]; 0% Plasma): 8000 pM | EC50 (RXFP1 [3]; 4% Plasma): 300 pM | EC50 (RXFP1 [3]; 10% Plasma): 400 pM | EC50 (RXFP1 [3]; 600 uL BSA): 700 pM

B1: Unconjugated PIP: recombinant human Prolactin-inducible Protein (hPIP), native (protein, UniProt P12273 29-146, looked up)
Prolactin-inducible protein: QDNTRKIIIKNFDIPKSVRPNDEVTAVLAVQTELKECMVVKTYLISSIPLQGAFNYKYTACLCDDNPKTFYWDFYTNRTVQIAAVVDVIRELGICPDDAAVIPIKNNRFYTIEILKVE
Cmax [4]: 220 nM | MRT [4]: 12.0 h | Plasma Insulin AUCB (ng/mL*min) compared to the vehicle [5]: +29%
